This is an account of results in the supplement of paper PMC12042874.

The nature of the data set: amyloid nucleation score (Sup35N fusion, yeast selection) (log enrichment); library NNK3; higher = more nucleation; inactive = no reads after selection. Put shortly: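 DiMSum was used to calculate nucleation scores as log enrichment of output over input reads, centred on the mode score of non-aggregating sequences. Sequences with fewer than 100 input reads were not scored. Input and output came from Illumina sequencing of plasmid inserts in psi-negative yeast expressing peptides of 20 random codons fused to Sup35N, induced 24 hours with 100 μM copper sulfate and then grown 7 days at 30°C on medium lacking adenine and uracil.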

± gives the uncertainty stated by the source.

Consider TRRQTGYILSTLWLAHCHFR, for which the amyloid nucleation score result was “inactive”.

In turn, LCIFKVLF gave an amyloid nucleation score of 0.969 ± 0.16.

On to RDCDDQ, for which the amyloid nucleation score result is “inactive”.

With IVFFYAEIGYSPSQCRRRVA, the amyloid nucleation score result is “inactive”.

Take PRPLGLFTSYDNGLGYRQGQ: the amyloid nucleation score result is “inactive”.

Regarding RSSSPIRVHTINGDVYTDVV, the amyloid nucleation score result was “inactive”.

In the case of FCAVALFFNTSVSFIDRSLP, the amyloid nucleation score was 1.66 ± 0.083.

With IGTTEQ, the amyloid nucleation score result was “inactive”.

VLVEVEIYLILFIVYAW: the amyloid nucleation score entry is “inactive”.

For CVNTHRY, the amyloid nucleation score result was “inactive”.

For the substance YGAMSAGDMETY, the amyloid nucleation score result was “inactive”.

Take RWQRLSRHGISDSPLAREAA: the amyloid nucleation score was -0.917 ± 1.8.

In the case of EGMEWVVEDNFRKMCYTARF, the amyloid nucleation score entry was “inactive”.

Take YIIFNFIDFYKPGWGFQWTV: the amyloid nucleation score was determined as 2.82 ± 0.052.

On to YGGDSNRIRVRLFKMKTLNL, for which the amyloid nucleation score entry is “inactive”.

Take HLKSVGVVYDWMSQWSLWCR: the amyloid nucleation score entry was “inactive”.

Consider YVDNLACLNSFPIMPVFKVG, for which the amyloid nucleation score result is “inactive”.

On to WFFDTDIFHCEFEKMYYPLV, for which the amyloid nucleation score result is “inactive”.

As for RNYNVV, the amyloid nucleation score result is “inactive”.

Take CHNVLWRLKRFHASRCTGDM: the amyloid nucleation score entry is “inactive”.

The substance YFCFVLFYLN yielded an amyloid nucleation score of 2.04 ± 0.07.

Turning to CLTTVRLRNYFF, the amyloid nucleation score entry was “inactive”.

Take TFLVTRVPYSFF: the amyloid nucleation score entry is “inactive”.

In the case of HWACNWI, the amyloid nucleation score entry is “inactive”.

On to FLVLFTL, for which the amyloid nucleation score result is “inactive”.

For the substance RVWRSNSPGAEKWTLLTKTL, the amyloid nucleation score entry was “inactive”.

With HSVIPWDTISDTA, the amyloid nucleation score entry was “inactive”.

For GVEMHVFWDLA, the amyloid nucleation score entry was “inactive”.

For LNYNF, the amyloid nucleation score result was “inactive”.

For YSILYKSYYLRMHWVVASRL, the amyloid nucleation score entry is “inactive”.

Take NMTHLFMVCAKVSMPSGDGG: the amyloid nucleation score entry was “inactive”.

As to IYSVGYRSS, the amyloid nucleation score entry was “inactive”.

Substance LRRRVKSFSELYLAVTRVML displayed an amyloid nucleation score of 0.286 ± 0.43.

Regarding RCLMDMFHILPKKSGVFSIT, the amyloid nucleation score result was “inactive”.

Turning to LKYIDTSFMLGFSIVSLRFQ, the amyloid nucleation score entry is “inactive”.

CFYAISDRRSRFSIIFTYNG: the amyloid nucleation score result was “inactive”.

Turning to RFDDRG, the amyloid nucleation score result was “inactive”.

Substance DFSTDTHWKVWW yielded an amyloid nucleation score of 0.566 ± 0.43.

In the case of GGMYKNWGCWLELLGKTLPW, the amyloid nucleation score result is “inactive”.

For LCGATCLMFMLHVKCTSGFE, the amyloid nucleation score entry was “inactive”.

For the substance PFPHKDQYHGGGKWPDE, the amyloid nucleation score entry was “inactive”.

With MDRYFQYPMQDMAQGTVRRD, the amyloid nucleation score is -0.56 ± 1.7.

Take RWSVSSQTMLSIINDISFFG: the amyloid nucleation score turned out to be 0.099 ± 0.2.

On to GKVYLYLCLGMMFGL, for which the amyloid nucleation score entry is “inactive”.

In the case of TWQVFSASVTVSLSYTSK, the amyloid nucleation score result was “inactive”.

For the substance MHAVDNNLRVNIIMSVLLYK, the amyloid nucleation score result was “inactive”.

For WRTFLCWYVLGPKTSFEYGR, the amyloid nucleation score result is “inactive”.

In turn, ICSSFDGQ registered an amyloid nucleation score of 0.458 ± 0.2.

For the substance VLGDMVYGGHAL, the amyloid nucleation score entry is “inactive”.

Take MNFGFWGTVHWSHASNHVGS: the amyloid nucleation score entry is “inactive”.

Regarding GPWGSNNMQICTYFQNLFIA, the amyloid nucleation score came out at 1.73 ± 0.092.

With VSSSDNSVEIDRVHKMSMVE, the amyloid nucleation score entry was “inactive”.

Take FWGVSDGFMC: the amyloid nucleation score was -0.141 ± 0.96.

As for ISFYKGYLKFNL, the amyloid nucleation score result was “inactive”.

For the substance LHLGMRLV, the amyloid nucleation score result is “inactive”.

CHGCMRLLSDGLKDEWYMIF: the amyloid nucleation score entry was “inactive”.

FRCTRGSIVWSFYFVRNLMI: the amyloid nucleation score result was “inactive”.

As for IGRISMAIMWIGVGVA, the amyloid nucleation score entry is “inactive”.

As for IEIFEFFSRSSNRSQPGAPL, the amyloid nucleation score entry is “inactive”.

LFGYDSISLINRGCVGGFNV: the amyloid nucleation score entry is “inactive”.

On to QRDTSGEYGIVWYYVFNRTG, for which the amyloid nucleation score entry is “inactive”.

For MDPESVWED, the amyloid nucleation score entry was “inactive”.

For the substance RAFFDC, the amyloid nucleation score is -0.47 ± 0.66.

LQAQMYCLTTLWSWFGRVSR: the amyloid nucleation score result was “inactive”.

ETFFIYDVALQ: the amyloid nucleation score result was “inactive”.

As to GDSLMMYQQDWISEVLICLA, the amyloid nucleation score result is “inactive”.

On to IVLIKSILDANEEGT, for which the amyloid nucleation score result is “inactive”.

With ICKNYSVLVLRFGGSEGPTV, the amyloid nucleation score worked out at 1.52 ± 0.1.

With ADERRVIR, the amyloid nucleation score result is “inactive”.

For the substance IRFAAMFFALLLRRDESSYE, the amyloid nucleation score entry was “inactive”.

With LRYWWLDLTYYL, the amyloid nucleation score result was “inactive”.

For the substance RSHQKEMCVNFNLPVNFSHR, the amyloid nucleation score result is “inactive”.

On to MGEPGVDAFNRLTPKWCLIP, for which the amyloid nucleation score result is “inactive”.

Consider RLHFCVGPMAPYSMEQSQ, for which the amyloid nucleation score entry was “inactive”.

As for RKGHDVVAVYWADLHSSGIV, the amyloid nucleation score entry is “inactive”.

Regarding EVNWSIIRGWVEISYTVPEL, the amyloid nucleation score result is “inactive”.

Consider LHHAVVREWRFQKNVCRQLR, for which the amyloid nucleation score entry was “inactive”.

Consider LCSIVWRGIRDAYGQRYYVV, for which the amyloid nucleation score result was “inactive”.

In the case of VSIHCGRVYDWEGGFGERVN, the amyloid nucleation score result was “inactive”.

With RTSYVNLLYIMLDLLIRFRS, the amyloid nucleation score entry is “inactive”.

In the case of MKWNPLDQTKL, the amyloid nucleation score entry is “inactive”.

In the case of FTVYCF, the amyloid nucleation score entry was “inactive”.

With CSIILWALPEFNLLDFLPAD, the amyloid nucleation score result was “inactive”.

IERCVFAFCYCSLGQSAKSF had an amyloid nucleation score of 1.49 ± 0.14.

For SRMTIVKSWKRMLGRLLMRL, the amyloid nucleation score entry was “inactive”.

QLKHWTEIKQVLVVSREWVH: the amyloid nucleation score is -0.395 ± 1.3.

On to NYEARLSG, for which the amyloid nucleation score entry is “inactive”.

For the substance LVFVCARQSTIEVRGKQSRM, the amyloid nucleation score turned out to be 2.06 ± 0.065.

In the case of SHRKMFQGVKQVISSPETHS, the amyloid nucleation score result is “inactive”.

As to YLFRNLRGRAIFVNKIIGQR, the amyloid nucleation score entry is “inactive”.

With ATGDNNLGIMAMALYT, the amyloid nucleation score entry is “inactive”.

Regarding LSGVLLILSMYLDYWTNIF, the amyloid nucleation score result is “inactive”.

VTEYKFKVFLPMRKRSVIMV: the amyloid nucleation score entry is “inactive”.

For TNAFRLVLTNMKI, the amyloid nucleation score entry was “inactive”.

With KRMWKGE, the amyloid nucleation score entry was “inactive”.

WRFFDVDNNMSTHVLKQLRC: the amyloid nucleation score result is “inactive”.

Consider VSYSNDKGIWIYGTSLYPGA, for which the amyloid nucleation score result is “inactive”.

For the substance LEFRNHPMSYYTLVGQCVRK, the amyloid nucleation score was -0.372 ± 0.8.

LSLCRT registered an amyloid nucleation score of 0.001 ± 0.32.

With KIIRMF, the amyloid nucleation score entry is “inactive”.

On to LQKIKCSQADYWREMTVRDR, for which the amyloid nucleation score was 1.01 ± 0.16.

Regarding YACMCLCELSASYKLDTMC, the amyloid nucleation score result is “inactive”.

FIANGSDILADLFLHTSFHG: the amyloid nucleation score result is “inactive”.

On to SCEFYDSVLWSYFKMAMFAL, for which the amyloid nucleation score is -0.698 ± 0.8.

SPWAMGCECLVRGGLEKYAK: the amyloid nucleation score result was “inactive”.

On to GILSKIDVSWWRMAVSVKCW, for which the amyloid nucleation score result was “inactive”.

In the case of IVMRPSIGMILYSRSPFVYS, the amyloid nucleation score entry was “inactive”.

TDGRITS showed an amyloid nucleation score of 0.492 ± 0.35.

As for MPCVMILYVIYSIY, the amyloid nucleation score stood at 0.013 ± 0.59.

Turning to HIPGNLYYKDTFRCAELGHW, the amyloid nucleation score entry was “inactive”.

The substance KFSLCSVACFNK showed an amyloid nucleation score of 2.88 ± 0.052.

Turning to HNSRFPSF, the amyloid nucleation score is 0.338 ± 0.58.

WHSYTKLCGRTSPPSSTLTG: the amyloid nucleation score entry is “inactive”.

Regarding CFVLFLNLLVATGPIWINSP, the amyloid nucleation score was determined as 0.477 ± 0.2.

Turning to KVNTLRVEDIWTSQAFVCMV, the amyloid nucleation score entry was “inactive”.

For LHGHLGWWNVLDCPICLNFI, the amyloid nucleation score entry is “inactive”.

Take LFHNCHGFFHTNNVPFVRWP: the amyloid nucleation score result was “inactive”.

For IGWKEVSA, the amyloid nucleation score was -0.006 ± 0.35.

As for MISICCGIPCLFIFWFRASA, the amyloid nucleation score entry is “inactive”.

RTFIKAKLP: the amyloid nucleation score entry was “inactive”.

Regarding CYKMNVMT, the amyloid nucleation score result was “inactive”.

As for NGSIILICLVYVGLRCLWFL, the amyloid nucleation score entry is “inactive”.

Regarding FISSRLFTALLSRCNFHNRF, the amyloid nucleation score result was “inactive”.

On to NCYRRTLHSSWREWIWPIGC, for which the amyloid nucleation score was -0.062 ± 0.82.

As for SYNTYSVYGWGKGPRNYDWQ, the amyloid nucleation score result is “inactive”.

Take NRNRYMFLITITHY: the amyloid nucleation score entry is “inactive”.

Substance ETGDI came in with an amyloid nucleation score of 1.64 ± 0.087.

As to LLFFLAGVSSHIMYLVYARC, the amyloid nucleation score result was “inactive”.

As to TRPESETHGMMR, the amyloid nucleation score result was “inactive”.

RSFHYRIACESNLAVEVHFR had an amyloid nucleation score of 1.74 ± 0.066.

Regarding CSSQTIRGTDKSHDVLAKLL, the amyloid nucleation score result was “inactive”.

Substance FVPNVRLTDLWRANKGIVSH had an amyloid nucleation score of 0.404 ± 0.38.
